Source: patent publication US20150174202A1, “Methods and Compositions for Modulating Beta Cell Proliferation” (The Board of Trustees of the Leland Stanford Junior …, priority 2011, published 2015)
Entries after “also recorded” stand apart in the source; their conditions may differ.

Tests used:
Format in all cases: cell-based
[1] = test system: Ezh2; assay: Ezh2/Ezh1 expression in cultured mouse islets (real-time RT-PCR, western blot); conditions: juvenile mouse islets exposed to insulin or prolactin, 2 days
Method: Mouse pancreatic islets were purified as described in Chen et al. (2009) Genes Dev. 23, 975-985 and used immediately for assays described in the text. To study Ezh2 induction in cultured islets exposed to mitogens, freshly isolated islets from 2-3-week old, and 7-12-month old C57BL/6 mice were recovered and equilibrated overnight at 37° C., 5% CO2 in RPMI-1640 medium supplemented with 0.5% fetal bovine serum (FBS), 0.2% bovine albumin (BSA) and 2% penicillin/streptomycin. […] Immunostaining of BrdU and insulin was performed on processed islets, and β-cell proliferation rate was determined by quantifying percentage of insulin+ cells with BrdU+. […] RNA concentration was measured with a RiboGreen RNA quantification assay (Invitrogen). One-step quantitative RT-PCR was performed and analysed using an ABI Prism 7300 detection system (Applied Biosystems) with TaqMan one-step RTPCR Master Mix Reagents and appropriate amounts (10-100 ng) of islet total RNA as the template. We calculated the ratio of mRNA for the gene of interest to the amount of internal control mRNA of peptidylprolyl isomerase A (cyclophilin A, PPIA), and then normalized the ratio for each gene to its median. […]

[2] = test system: PDGFRA; assay: Pdgfra expression in cultured adult mouse islets exposed to Wnt3a or R-Spondin; conditions: isolated adult mouse islets (4-5 months of age) in culture
Description: In diverse tissues, including the pancreas, Wnt signaling activates expression of Axin2, a negative regulator of the pathway. […] This spatially and temporally restricted expression pattern is reminiscent of declining Pdgfra, Pdgfrab, and Ezh2 levels and β-cell proliferation in animals (FIG. 22B-D, Chen et al 2009, 2011). Likewise, in mice harboring a ‘Top-Gal’ synthetic reporter gene of Wnt signaling activity, β-galactosidase reporter expression declines in islet β-cells with age (FIG. 22E-G). Thus, changes in Wnt signaling underlie age-dependent reductions of Pdgfr expression and β-cell PDGF signaling competence in β-cells. Consistent with this, culture of isolated adult mouse islets (4-5 months of age) with purified Wnt3a or the Wnt agonist R-Spondin increased Pdgfra mRNA expression. As described above, Pdgfra signaling induced Ezh2 expression in islets. To assess the function of Pdgfra induced by R-Spondin, R-Spondin was added to adult mouse islets, followed by addition of purified PDGF-AA (100 ng/ml), and Ezh2 mRNA levels were then measured.

[3] = test system: PDGFRα and PDGFRβ; assay: PDGFR mRNA in cultured adult human islets exposed to Wnt3a or R-Spondin
[4] = adult human islets (mean age >40 years), exposed for two days

Molecule | Ezh2 mRNA levels after mitogen exposure [1] | Pdgfra mRNA expression [2] | mRNA levels encoding PDGFRα [3, 4] | mRNA levels encoding PDGFRβ [3, 4] | dose dependence of induction of PDGFRA and PDGFRB mRNA ([3]; cultured adult human islets)
prolactin (protein, UniProt P01236 29-227, looked up, mitogen capable of promoting β-cell proliferation) Prolactin: LPICPGGAARCQVTLRDLFDRAVVLSHYIHNLSSEMFSEFDKRYTHGRGFITKAINSCHTSSLATPEDKEQAQQMNQKDFLSLIVSILRSWNEPLYHLVTEVRGMQEAPEAILSKAVEIEEQTKRLLEGMELIVSQVHPETKENEIYPVWSGLPSLQMADEESRLSAYYNLLHCLRRDSHKIDNYLKLLKCRIIHNNNC | did not detectably alter; also recorded: did not induce | – | – | – | –
Wnt3a: purified Wnt3a protein (protein, UniProt P56704 19-352, looked up) Protein Wnt-3a: SYPIWWSLAVGPQYSSLGSQPILCASIPGLVPKQLRFCRNYVEIMPSVAEGIKIGIQECQHQFRGRRWNCTTVHDSLAIFGPVLDKATRESAFVHAIASAGVAFAVTRSCAEGTAAICGCSSRHQGSPGKGWKWGGCSEDIEFGGMVSREFADARENRPDARSAMNRHNNEAGRQAIASHMHLKCKCHGLSGSCEVKTCWWSQPDFRAIGDFLKDKYDSASEMVVEKHRESRGWVETLRPRYTYFKVPTERDLVYYEASPNFCEPNPETGSFGTRDRTCNVSSHGIDGCDLLCCGRGHNARAERRREKCRCVFHWCCYVSCQECTRVYDVHTCK | – | increased | increased | increased | depends on the dose
